Measured values taken from patent US20250304693A1 (HIFIBIO, published 2025).

T1: recombinant human BTLA (human, UniProt Q7Z6A9 31-157, limits assumed)
T1 construct: ELISA antigen; construct not described
T1 sequence (looked up): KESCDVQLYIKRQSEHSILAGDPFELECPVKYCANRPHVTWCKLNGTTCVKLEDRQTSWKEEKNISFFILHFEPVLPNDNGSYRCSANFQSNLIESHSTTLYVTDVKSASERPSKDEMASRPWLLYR

T2: cynomolgus BTLA on cells (cynomolgus, UniProt A0A2K5W7M7 31-289)
T2 construct: whole, on cells; Overexpressed on Expi293 cells; also called cyno BTLA; CynoBTLA
T2 sequence: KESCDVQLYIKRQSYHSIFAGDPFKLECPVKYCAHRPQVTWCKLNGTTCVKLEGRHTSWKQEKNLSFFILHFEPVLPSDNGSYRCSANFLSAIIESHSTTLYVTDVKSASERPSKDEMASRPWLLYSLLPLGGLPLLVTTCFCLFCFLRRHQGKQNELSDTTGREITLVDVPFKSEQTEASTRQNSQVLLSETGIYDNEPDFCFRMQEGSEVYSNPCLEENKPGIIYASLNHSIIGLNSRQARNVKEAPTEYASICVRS


Assays:
[1] = biological target: T3, human BTLA (B- and T-lymphocyte attenuator) on cells (human, UniProt Q7Z6A9 31-289); assay: cell-based or functional assay
[2] = biological target: T1, recombinant human BTLA; assay: ELISA on recombinant human BTLA
[3] = biological target: T2, cynomolgus BTLA on cells; assay: FACS on Expi293.cynoBTLA cells, AF647 anti-human IgG Fc detection
Method: (§1) In FIGS. 11A and 11B, HEK293 overexpressing human BTLA (FIG. 11A) and Expi293 cells overexpressing cynomolgus BTLA (FIG. 11B) were incubated with different concentrations of selected HFB6-3 humanized variants with cysteine mutations. Anti-BTLA antibodies binding to target cells were quantified with an AF647-conjugated anti-human IgG Fc 2nd antibody by FACS. HFB6-3hz24-hG4P-C109A, HFB6-3hz25-hG4P-C109A, HFB6-3hz24-hG4P-C109S and HFB6-3hz25-hG4P-C109S bound to human BTLA and cyno BTLA with single digit nM and sub-nM EC₅₀, similar as parental HFB6-3 (FIGS. 11A and 11B and Table 13).

[4] = biological target: T3, human BTLA (B- and T-lymphocyte …); assay: cell-based or functional assay; remark: listed apart in the source
[5] = biological target: T3, human BTLA (B- and T-lymphocyte …); assay: FACS on HEK293T.hBTLA cells, AF647 anti-human IgG Fc detection
Method: as §1

[6] = biological target: T3, human BTLA (B- and T-lymphocyte …); assay: FACS competition on HEK293T.hBTLA cells; competitor hrHVEM-His-DL650
Method: In FIG. 12A, recombinant HVEM soluble protein was conjugated with DyLight 650 (DL650) fluorophore. HEK293 cells overexpressing hBTLA (HEK293.BTLA) were preincubated with increasing concentrations of selected HFB6-3 humanized variants with cysteine mutants or parental HFB6-3 at 4° C. for 30 minutes and then with DL650-conjugated HVEM for additional 30 minutes. After washing, soluble HVEM remaining associated with BTLA on HEK293.BTLA cells was measured by FACS.

Binder	Reporter EC50 [1] [nM]	EC50 [2] [nM]	EC50 [3] [nM]	CHO.TCRa.hHVEM/Jurkat.hBTLA.NFAT-luc (EC50 (nM)) [4] [nM]	EC50 [5] [nM]	IC50 [6] [nM]
HFB6-3hz24-hG4P-C109A (antibody, V domains shown, Humanized variant of HFB6-3) VH: QVQLQESGPGLVKPSGTLSLTCADSGFNIKDTYIHWVRQPPGKGLEWIGRIDPANGFTRYNPSLKSRVTISSDKSKNQASLKLSSVTAADTAVYYCAREDGYPYYTLDAWGQGTTVTVSS VL: DIVMTQSPDSLALSLGERATINCKSSQSLLDVDGKTYLNWFQQKPGQPPKRLIYLVSKLDSGVPDRFSGSGSGTDFTLTISSVQAEDVAVYYCWQGTHFPRTFGQGTKLEIK	–	–	6.89	13	3.27	2.64
HFB6-3hz20-hG4P (antibody, V domains shown, Humanized variant of HFB6-3) VH: QVQLQESGPGLVKPSGTLSLTCADSGFNIKDTYIHWVRQPPGKGLEWIGRIDPANGFTRYNPSFKSRATISSDKSKNQASLKLSSVTAADTAVYYCAREDGYPYYTLDCWGQGTTVTVSS VL: DIVMTQSPDSLALSLGERATINCKSSQSLLDVDGKTYLNWFQQKPGQPPKRLIYLVSKLDSGVPDRFSGSGSGTDFTLTISSVQAEDVAVYYCWQGTHFPRTFGQGTKLEIK	–	–	7.38	–	3.84	2.91
HFB6-3hz25-hG4P-C109A (antibody, V domains shown, Humanized variant of HFB6-3) VH: QVQLQESGPGLVKPSGTLSLTCADSGFSISDTYIHWVRQPPGKGLEWIGRIDPANGFTRYNPSLKSRVTISSDKSKNQASLKLSSVTAADTAVYYCAREDGYPYYTLDAWGQGTTVTVSS VL: DIVMTQSPDSLALSLGERATINCKSSQSLLDVDGKTYLNWFQQKPGQPPKRLIYLVSKLDSGVPDRFSGSGSGTDFTLTISSVQAEDVAVYYCWQGTHFPRTFGQGTKLEIK	–	–	9.69	10.2	3.2	2.61
HFB6-3hz24-hG4P-C109S (antibody, V domains shown, Humanized variant of HFB6-3) VH: QVQLQESGPGLVKPSGTLSLTCADSGFNIKDTYIHWVRQPPGKGLEWIGRIDPANGFTRYNPSLKSRVTISSDKSKNQASLKLSSVTAADTAVYYCAREDGYPYYTLDSWGQGTTVTVSS VL: DIVMTQSPDSLALSLGERATINCKSSQSLLDVDGKTYLNWFQQKPGQPPKRLIYLVSKLDSGVPDRFSGSGSGTDFTLTISSVQAEDVAVYYCWQGTHFPRTFGQGTKLEIK	–	–	7.83	16.6	3.6	3.22
HFB6-2hz9-hG4P (antibody, V domains shown, Humanized variant of HFB6-2) VH: QVQLVQSGAEVKKPGASVKVSCKASGVNIKDTYMYWVRQAPGQGLEWIGRIDPANGYTRYAQKFQGRATVTADTSTSTVYLELSSLRSEDTAVYYCAVNDGYFEYFDVWGQGTTVTVSS VL: EIVLTQSPGTLSLSPGERATLSCRSSQSLLDSDGKPYLNWLQQKPGQAPRRLIYLVSKLDSGIPDRFSGSGSGTDFTLTISRLEPEDLAVYYCWQDTHFPRTFGQGTKLEIK	36.7	3.29	–	–	–	–
HFB6-2hz16-hG4P (antibody, V domains shown, Humanized variant of HFB6-2) VH: QVQLVQSGAEVKKPGASVKVSCKASGVNIKDTYMYWVRQAPGQGLEWIGRIDPANGYTRYAQKFQGRATVTADTSTSTVYLELSSLRSEDTAVYYCAVNDGYFEYFDVWGQGTTVTVSS VL: DIVMTQSPDSLAVSLGERATINCKSSQSLLDSDGKPYLNWLQQKPGQSPKRLIYLVSKLDSGVPDRFSGSGSGTDFTLTISSVQAEDVAVYYCWQDTHFPRTFGQGTKLEIK	10.8	2.39	–	–	–	–
HFB6-2hz12-hG4P (antibody, V domains shown, Humanized variant of HFB6-2) VH: EVQLLESGGGLVQPGGSLRLSCAASGVNIKDTYMYWVRQAPGKGLEWIGRIDPANGYTRYADSVKGRFTISADNSKNTLYLQMNSLRAEDTAVYYCAVNDGYFEYFDVWGQGTTVTVSS VL: EIVLTQSPGTLSLSPGERATLSCRSSQSLLDSDGKPYLNWLQQKPGQAPRRLIYLVSKLDSGIPDRFSGSGSGTDFTLTISRLEPEDLAVYYCWQDTHFPRTFGQGTKLEIK	43.2	5.05	–	–	–	–

Now from value to binder:

Reporter EC50 [1] [nM]	EC50 [2] [nM]	EC50 [3] [nM]	CHO.TCRa.hHVEM/Jurkat.hBTLA.NFAT-luc (EC50 (nM)) [4] [nM]	EC50 [5] [nM]	IC50 [6] [nM]	Binder
22.1	2.55	–	–	–	–	HFB6-2hz19-hG4P (antibody, V domains shown, Humanized variant of HFB6-2) VH: EVQLLESGGGLVQPGGSLRLSCAASGVNIKDTYMYWVRQAPGKGLEWIGRIDPANGYTRYADSVKGRFTISADNSKNTLYLQMNSLRAEDTAVYYCAVNDGYFEYFDVWGQGTTVTVSS VL: DIVMTQSPDSLAVSLGERATINCKSSQSLLDSDGKPYLNWLQQKPGQSPKRLIYLVSKLDSGVPDRFSGSGSGTDFTLTISSVQAEDVAVYYCWQDTHFPRTFGQGTKLEIK
9.77	2.51	–	–	–	–	HFB6-2hz20-hG4P (antibody, V domains shown, Humanized variant of HFB6-2) VH: QVQLQESGPGLVKPSGTLSLTCAASGVNIKDTYMYWVRQPPGKGLEWIGRIDPANGYTRYNPSFKSRATVSADKSKNQASLKLSSLTAADTAVYYCAVNDGYFEYFDVWGQGTTVTVSS VL: DIVMTQSPDSLAVSLGERATINCKSSQSLLDSDGKPYLNWLQQKPGQSPKRLIYLVSKLDSGVPDRFSGSGSGTDFTLTISSVQAEDVAVYYCWQDTHFPRTFGQGTKLEIK
66.8	3.96	–	–	–	–	HFB6-2hz8-hG4P (antibody, V domains shown, Humanized variant of HFB6-2) VH: QVQLVQSGAEVKKPGASVKVSCKASGVNIKDTYMYWVRQAPGQGLEWIGRIDPANGYTRYAQKFQGRVTMTADTSTSTVYMELSSLRSEDTAVYYCAVNDGYFEYFDVWGQGTTVTVSS VL: EIVLTQSPGTLSLSPGERATLSCRSSQSLLDSDGKPYLNWLQQKPGQAPRRLIYLVSKLDSGIPDRFSGSGSGTDFTLTISRLEPEDLAVYYCWQDTHFPRTFGQGTKLEIK
47	3.21	–	–	–	–	HFB6-2hz0-hG4P (antibody, V domains shown) VH: QVQLVQSGAEVKKPGSSVKVSCKASGVNIKDTYMYWVRQAPGQGLEWIGRIDPANGYARYAQKFQGRATITADESTSTAYLELSSLRSEDTAVYYCAVNDGYFEYFDVWGQGTTVTVSS VL: EIVLTQSPGTLSLSPGERATLSCRSSQSLLDSDGKPYLNWLQQKPGQAPRRLIYLVSKLDSGIPDRFSGSGSGTDFTLTISRLEPEDLAVYYCWQDTHFPRTFGQGTKLEIK
19.4	3.66	–	–	–	–	HFB6-2hz11-hG4P (antibody, V domains shown, Humanized variant of HFB6-2) VH: QVQLVQSGAEVKKPGSSVKVSCKASGVNIKDTYMYWVRQAPGQGLEWIGRIDPANGYARYAQKFQGRATVTADKSTSTAYLELSSLRSEDTAVYYCAVNDGYFEYFDVWGQGTTVTVSS VL: EIVLTQSPGTLSLSPGERATLSCRSSQSLLDSDGKPYLNWLQQKPGQAPRRLIYLVSKLDSGIPDRFSGSGSGTDFTLTISRLEPEDLAVYYCWQDTHFPRTFGQGTKLEIK
19.6	2.74	–	–	–	–	HFB6-2hz15-hG4P (antibody, V domains shown, Humanized variant of HFB6-2) VH: QVQLVQSGAEVKKPGASVKVSCKASGVNIKDTYMYWVRQAPGQGLEWIGRIDPANGYTRYAQKFQGRVTMTADTSTSTVYMELSSLRSEDTAVYYCAVNDGYFEYFDVWGQGTTVTVSS VL: DIVMTQSPDSLAVSLGERATINCKSSQSLLDSDGKPYLNWLQQKPGQSPKRLIYLVSKLDSGVPDRFSGSGSGTDFTLTISSVQAEDVAVYYCWQDTHFPRTFGQGTKLEIK
18.2	2.4	–	–	–	–	HFB6-2hz17-hG4P (antibody, V domains shown, Humanized variant of HFB6-2) VH: QVQLVQSGAEVKKPGSSVKVSCKASGVNIKDTYMYWVRQAPGQGLEWIGRIDPANGYARYAQKFQGRATITADESTSTAYLELSSLRSEDTAVYYCAVNDGYFEYFDVWGQGTTVTVSS VL: DIVMTQSPDSLAVSLGERATINCKSSQSLLDSDGKPYLNWLQQKPGQSPKRLIYLVSKLDSGVPDRFSGSGSGTDFTLTISSVQAEDVAVYYCWQDTHFPRTFGQGTKLEIK
10.8	2.24	–	–	–	–	HFB6-2hz18-hG4P (antibody, V domains shown, Humanized variant of HFB6-2) VH: QVQLVQSGAEVKKPGSSVKVSCKASGVNIKDTYMYWVRQAPGQGLEWIGRIDPANGYARYAQKFQGRATVTADKSTSTAYLELSSLRSEDTAVYYCAVNDGYFEYFDVWGQGTTVTVSS VL: DIVMTQSPDSLAVSLGERATINCKSSQSLLDSDGKPYLNWLQQKPGQSPKRLIYLVSKLDSGVPDRFSGSGSGTDFTLTISSVQAEDVAVYYCWQDTHFPRTFGQGTKLEIK
